In publication PMC8580317:
Changes are numbered by the printed parent chain. Several values for one entry are separate records, joined by “and”; a condition that tells them apart may be missing. Equal values may be shown once. Values belong to the molecule of their own block, whether it stands above or below them.

Tests used:
FZD5 CRD = FZD5 CRD (UniProt Q13467); details: cited from earlier work
[1] = molecular target: Nluc-FZD6-K466K-Cy3 sensor (human) (UniProt O60353)
[2] = molecular target: T1, Nluc-FZD6-Q171K-Cy3 sensor (human) (UniProt O60353)
T1 sequence (chain, trans-cyclooct-2-ene-L-lysine (TCO*K) at 171, labelled with Tet-Cy3): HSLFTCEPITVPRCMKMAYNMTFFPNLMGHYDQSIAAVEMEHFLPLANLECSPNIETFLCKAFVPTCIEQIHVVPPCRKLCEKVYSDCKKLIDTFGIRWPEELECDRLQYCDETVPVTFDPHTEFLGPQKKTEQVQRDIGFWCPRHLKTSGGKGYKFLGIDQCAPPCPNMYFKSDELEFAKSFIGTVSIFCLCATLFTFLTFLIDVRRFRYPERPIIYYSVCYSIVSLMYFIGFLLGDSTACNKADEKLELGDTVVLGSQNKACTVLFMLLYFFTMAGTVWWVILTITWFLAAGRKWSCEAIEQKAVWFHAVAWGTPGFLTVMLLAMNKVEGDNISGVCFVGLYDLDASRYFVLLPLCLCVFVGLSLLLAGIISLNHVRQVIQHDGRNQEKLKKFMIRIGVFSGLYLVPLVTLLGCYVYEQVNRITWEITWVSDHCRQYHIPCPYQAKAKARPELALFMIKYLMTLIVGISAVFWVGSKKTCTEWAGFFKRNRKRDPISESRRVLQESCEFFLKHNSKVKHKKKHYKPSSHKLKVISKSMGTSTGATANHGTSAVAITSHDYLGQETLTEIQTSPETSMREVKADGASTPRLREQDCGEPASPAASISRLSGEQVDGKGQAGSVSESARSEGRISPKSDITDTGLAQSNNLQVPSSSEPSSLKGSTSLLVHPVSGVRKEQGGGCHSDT

[3] = molecular target: Nluc-FZD5-Q493K-Cy3 sensor (human) (UniProt Q13467)
[4] = molecular target: Nluc-FZD6-K466K-Cy3 sensor (human) (UniProt O60353); remark: listed apart in the source
[5] = molecular target: T2, Nluc-FZD6-K466K-Cy3 dimer mutant (D365A/R368A/Y369A) (human) (UniProt O60353)
T2 sequence (chain, trans-cyclooct-2-ene-L-lysine (TCO*K) at 466, labelled with Tet-Cy3): T1 sequence (chain, trans-cyclooct-2-ene-L-lysine (TCO*K) at 171, labelled with Tet-Cy3) with K153Q, D347A, R350A, Y351A

[6] = molecular target: Nluc-FZD6-K466K-Cy3 sensor (human) (UniProt O60353); remark: listed apart in the source

Molecule: WNT-3A (from UniProt P56704)
- Kd (FZD5 CRD): 3.1 nM

- fitted maximal ∆BRET amplitude of the Cy3-labelled sensor upon WNT-5A (3 μg/ml), HEK293T cells [1]: -26.4%
- fitted maximal ∆BRET amplitude of the Cy3-labelled sensor upon WNT-5A (3 μg/ml), HEK293T cells [2]: -11.6%
- maximal ∆BRET amplitude of the Cy3-labelled sensor upon WNT-5A (3 μg/ml), HEK293T cells [3]: -15.6%
- EC50 of the WNT-5A-induced BRET signal of the sensor (concentration-response curve), HEK293T cells [4]: 22.4 nM and 850 ng/ml
- fitted plateau of the WNT-5A-induced BRET response of the sensor, HEK293T cells [5]: -10.2%
- fitted plateau of the WNT-5A-induced BRET response of the sensor (experiment beside the dimer mutant), HEK293T cells [6]: -19.7%
B1: recombinant WNT-5A (ligand)
chain: IIGAQPLCSQLAGLSQGQKKLCHLYQDHMQYIGEGAKTGIKECQYQFRHRRWNCSTVDNTSVFGRVMQIGSRETAFTYAVSAAGVVNAMSRACREGELSTCGCSRAARPKDLPRDWLWGGCGDNIDYGYRFAKEFVDARERERIHAKGSYESARILMNLHNNEAGRRTVYNLADVACKCHGVSGSCSLKTCWLQLADFRKVGDALKEKYDSAAAMRLNSRGKLVQVNSRFNSPTTQDLVYIDPSPDYCVRNESTGSLGTQGRLCNKTSEGMDGCELMCCGRGYDQFKTVQTERCHCKFHWCCYVKCKKCTEIVDQFVCK
